Assay: yeast display, Sf9 membrane polyspecificity reagent, FACS + sequencing; frameworks hold sequencing errors
Method in brief: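 Galactose induction of a Saccharomyces cerevisiae BJ5465 synthetic nanobody display library ran 36–48 hours. The cells were then stained for 1 hour at 4 °C with 10% biotinylated, detergent-solubilized Sf9 membrane reagent, pulled down on streptavidin microbeads and FACS-sorted into low and high (top ~1%) gates on expression and reagent-binding fluorescence. Labels for polyreactivity follow the gate of origin.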
For “QVQLVESGGGLVQAGGSLRLSCAASGSILYVNAMGWYTQEPGKERELVAAITVSGGSTYYADSVKGRFTISRDNAKNTVYLQMNSLKPEDTAVFYCAAPALGNYFYGYDYCGQGTQVTVSS”, the “polyreactivity (PSR sort gate)” value was “low polyreactivity”. With “QVQLVESGGGLVQAGGSLRLICAASGRTLWSNAMGWYRQAPGKEMELFATISRGGGSTSYADSVKGRFTISRYNAKKTVYLQLYSLKPEDTSVYYCNNYPYIQRTWWYDYWGQGTQVTVSS” the “polyreactivity (PSR sort gate)” value was “high polyreactivity”. For “QVQLVESGGGLVQAGCSLRLICAASGSISYHNAKGWYRQAPAKEREWVAANSGDGDSTYYADSVKVRFTISRDNAKHTVYLQMNTLKPEDSAVYYSAAEPTVYFSDFVLFPSDFWGQGTQVTVSS”, the “polyreactivity (PSR sort gate)” value was “low polyreactivity”. With “QVQLVESGGGLVQAGGSLRLSCAASGSTLQDNAMGWYRQAPGKERELVAAITTGSTTYADSVKGRFTISRDNAKNTVYLQMNSLKPEDTAVYYCNARVDWGWPGYEYDYWGQGTQVTVSS” the “polyreactivity (PSR sort gate)” value was “low polyreactivity”. For “QVQLVESGGGLVQAGGSLRLSCAASGFTFLPYVMGWYRQAPGKERELVAAMSSSGGSTYYADSVKGRFTISRDNAKNTVYLQMNSLKPEDTAVYYCAKDIGVRRRDFEDYEYWGQGTQVTVSS”, the “polyreactivity (PSR sort gate)” value was “low polyreactivity”. With “QVQLVESGGGLVQAGGSLRLSCAASGSIFSVYAMGWYRQAPGKERELVAGITRGGSTYADSVKGRFTISRDNAKNTVYLQMNSLKPEDTAVSYCAADALIATPSWGKYNYWGQGTQVTVSS” the “polyreactivity (PSR sort gate)” value was “high polyreactivity”. With “QVHLVESGGGLVQAGGSLRLTCAASGRIFAHYAMGWYRQAPGKERELVAAISSGGSTYYADSVKGRFTISRDNAKNTVYLQMNSVKPEDTAVYYCNKRPVRRKYDYWGQGTQVTVSS” the “polyreactivity (PSR sort gate)” value was “low polyreactivity”. In the case of “QVQLVESGGGLVQAGGSLRLSCAASGRIFTWYAMGWYRQAPGKERELVAAISSAGRTYYADSVKGRFTISRDNAKNTVYLQMNSLKPEDTAVYYCAKVSKYRHFYTFDYWGQGTQVTVSS”, the “polyreactivity (PSR sort gate)” value was “high polyreactivity”. With “QVQLVESGGGLVQAGGSLRLSCAASGSIFKPYSMGWYRQAPGKERELVAAISTRRSSTYYADSVKGRFTFSRDNAKNTVYLQMNSLIQEDTAVYYCAKRRYLWGYEYDSWGQGTQVNVSS” the “polyreactivity (PSR sort gate)” value was “high polyreactivity”. With “QVHHEESGGGLFQAGGRLRLSCAASGYIFYDYSMGWYRQAPGKERELVAAISSGGSTNYADSVKGRFTISRDNAKNTVYLQMNSLIPEDTAVYYCASDDRSYATWKRDYDYWGQGTHVTVSS” the “polyreactivity (PSR sort gate)” value was “low polyreactivity”. In the case of “QVQLVESGGGLVQAGGSLRLSCAASGRTFIKYAMGWYRQAPGKERELVAAITYSAGSTSYADSVKGRFTISRDNAKNTVYLQMNRLKPEDTAVYYCARRTRSYGYRSDYYYWGQGTQVTVSS”, the “polyreactivity (PSR sort gate)” value was “low polyreactivity”. For “HVQLVESGGGLVQAGGSLRLSCAASGSTFSAYAMGWDRQAPGKERELVASISYSGSSTYYADSVKGRFTISRDNAKNTVYLHMNSLNPEDTAVSSCAADDRYWGPGGPLSRWSRGMYYWGQGTQVTVSS”, the “polyreactivity (PSR sort gate)” value was “high polyreactivity”. In the case of “QVQLVVSGAGLVQAGGSLRLSCAASGRNVVRNAMGWSRQAPGNEREWVAAITSGGRTYYAVSVKGRFTISRDNAKNTVYLQMTSLTPEDTAVYSCSTETRPHSVKNSPISLPDDYWGQGTQETVSS”, the “polyreactivity (PSR sort gate)” value was “low polyreactivity”. In the case of “QVQLVESGGGLVQAGGSLRLSCAASGIILATYAMGLYRQAPGKEMELVAAISWSGGRTYYADSVKGRFTISRDKAKNTVYLQMNSLKPEDTAVYYCNAAYPAYGRTQYGRYDYWGQGTQVTVSS”, the “polyreactivity (PSR sort gate)” value was “high polyreactivity”. With “QVQLVESGGGLVQAGGSLRLSCAASGSIFSSNAMVWYRPAPGKERELVAAIDYSGGRTYYADSVKGRFTISRDNPKNTVYLQMNSLKPEDTAVYYCAKLIPVHSRYDYWGQGTQVTVSS” the “polyreactivity (PSR sort gate)” value was “low polyreactivity”. With “QVQLVESGGGLVQAGGSLRLSCAASGNTFTVNAMGWYRQAPGKERELVAAINYSGGSTYYADSVKGRFTISRDNAKNTVYLQMNSLKPEDTAVYYCAASPDELLYEMYYWGQGTQVTVSS” the “polyreactivity (PSR sort gate)” value was “low polyreactivity”. In the case of “QVQLVESGGGLVQAGGSLRLSCAASGNIFTSNAMGWYRQAPGKERELVAAITSGGSTYYADSLKGRFTISRDNAKNTVYLQMISLKPEDTAVYYCATLRRPHLRPYYYWGQGTQVTVSS”, the “polyreactivity (PSR sort gate)” value was “high polyreactivity”. For “QVQLVESGGGLVQAGGRLRLSCAASGSTFGSNVMGWYRQAPGKERELVASISSGGRTKYADSVKGRFTISRDNAKNTVYLQMNSLKPEDTAVYYCNTRLRKKNSRDYDYWGQGTQVTVSS”, the “polyreactivity (PSR sort gate)” value was “low polyreactivity”. In the case of “QVQLVESGGGLVQAGGSLRLSSAASGRTFQYYAMGWYRQAPGKERELVAAITSGGSTYYADSVKGRFTISRDNAKNTVSLQMNSLKPEDTAVYYCAATFYYSGHDDYWGQGTQVTVSS”, the “polyreactivity (PSR sort gate)” value was “low polyreactivity”. With “QVQLVESGGGLVQAGGSLRLSCAASGSIFYVYAMGWYRQAPGKERELVAAITWSGGSTYYADSVKGRFTISRDNAKNTVYLQMNSLKPEDTAVYYCAADEGYDYPYYYWGQGTQVTVSS” the “polyreactivity (PSR sort gate)” value was “high polyreactivity”. In the case of “QVQLVESGGGLVQAGGSLRLSCAASGFIFNAYAMGWYRQAPGKERELVAAISTRCSNTYYADSVKGRFTISRDNAMNTVFLQMNSLIPEDTAVYYCAARGYVTYSKSNYWGQGTQVTVSS”, the “polyreactivity (PSR sort gate)” value was “high polyreactivity”. For “QVQLQESGGGLVQAGGSLLSCAASGTISWVDEMGWYRQAPGNERELVAGIAGGGNTNYADSVKGRFTISRDNAKNTVYLQMNSLDTAVYYCAGWDYTGNVVTGDYWGQGTQVTVSS”, the “polyreactivity (PSR sort gate)” value was “high polyreactivity”. With “QVQLVESGGGLVQAGGSLRLSCAASGFTFDSNAMGRYRQAPGKERELVAANSTGGSTYYADSVKGRFTISRDNAKNTVYLQMNSLKPEDTAVYYCARDPPYPDTWYGYWGQGTQVTVSS” the “polyreactivity (PSR sort gate)” value was “low polyreactivity”. For “QVQLVESGGGLVQAGGSLRLSCAASGGTFVGYAMGWYRQAPGKERELVASITRRGGNTYYADSVKGRFTISRDNAKNTVYLQMNSLKPEDTAVYYCDRRYYYQYRYDYWGQGTQVTVSS”, the “polyreactivity (PSR sort gate)” value was “high polyreactivity”. For “QVQLVESGGGLVQAGGSLRLSCAASGSIFKWYAMGWYRQAHGKERELVAAITNGGGSTYYADSVKGRFTISRDNAKNTVYLQMNSLKPEDTAVYYCNADSYYYPYDYWGQGTQVTVSS”, the “polyreactivity (PSR sort gate)” value was “low polyreactivity”. With “QVQLVETAGGLVQAGASLRLSSAASGITFAYYAMGWYRQAPAKERELVAAISSSGGSTYYADSVKGRFTISRDNAKNTVYLQLNSLNPEDTAVYYCAVDYSYWVEYWGLGTQVTVSS” the “polyreactivity (PSR sort gate)” value was “high polyreactivity”. In the case of “QVQLVESGGGLVQAGGSLRLSCAASGFTLGWYVMGWYRQAPGKERELVAGISWSGGNTYYADSVKGRFTISRDNAKNTVYLQMHSLKPEDTAVYYCNADRTYPDYDYWGQGTQVTVSS”, the “polyreactivity (PSR sort gate)” value was “low polyreactivity”. With “QVQLVESGGGLVQAGGSLRLSCAASGGTFLAYAMGWSRQAPGKEREFVAGISNDGDTNYADSVKGRFTISRDNAKNTVYLQMNSLKPEDTAVYYCAALYRGYAVAASYYHWGQGTQVTVSS” the “polyreactivity (PSR sort gate)” value was “high polyreactivity”. For “QVQLVESGGGLVQAGGSLRLSCAASGRTFYLYTMGSSRQAPGKERELVAAITGGGRTYYADSVKGRFTISRDNAKNTVYLQMNSLKPEDTAVYYCNADYAYYSYDYWGQGTQVTVSS”, the “polyreactivity (PSR sort gate)” value was “low polyreactivity”. In the case of “QVQLVESGGGLVQAGGSLRLSCAASGRIFGRYAMGWYRQAPGKEREFVAAISKRGGGTYYADSVKGRFTISRDNAKNTVYLQMNSLKPEDTAVYYCAVDNSPGFDDYDYWGQGTQVTVSS”, the “polyreactivity (PSR sort gate)” value was “high polyreactivity”. For “QVQLVESGGGLVQAGGSLRLSCAASGRILFSYGAMGWYRQAPGKERELVAAISYSGGSTYYADSVKGRFTISRDNAKNTVYLQMNSLKPEDTAVYYCAASSIVYRHYYWGQGTQVTVSS”, the “polyreactivity (PSR sort gate)” value was “high polyreactivity”. For “QVQLVESGGGLVQAGGSLRLSCAASGITFYVYDMGWYRQAPGKERELVAAISWSGGSTYYADSVKGRFTISRDNAKNTVYLQMNSLKPEDTAVYYCAAEVEYWYELYDYWGQGTQVTVSS”, the “polyreactivity (PSR sort gate)” value was “high polyreactivity”. For “QVQLVESGGGLVQAGGSLRISCAASGSTFYFNAMGWYRQAPGKERELVAGISSGGSTYYADSVKWRFTISRDNAKTTVYLQMNSLKPEDTAVYYCAATWLVERPFSYTEYGYWGQGTQVTVSS”, the “polyreactivity (PSR sort gate)” value was “low polyreactivity”. With “QVQLVESVGGLVQAGGSLRLSCAASGFTFRKYAMGWYRQAPGKERELVAGISWSGGTTYYADSVKGRFTISRDNAKNTVYLQMNSLKPEDTAVYYCNAKRVQVFAGYSYDYWGQGTQVTVSS” the “polyreactivity (PSR sort gate)” value was “high polyreactivity”. For “QVQLVESGGGLVQAGGSLRLSCAASGSILRVYAMGWYRQAPGKERELVAAISWGDGRTYYADSVKGRFTISRDNAKNTDYLQMNSLKPEDTAVYYCNADVFIQYWGVLIREYDYWGQGTQVTVSS”, the “polyreactivity (PSR sort gate)” value was “high polyreactivity”. For “QVQLVESGGGLVQAGGSLRLSCAASGFIFSRNAMGWYRHAPGKERELVAAISLRGGSTYYADSVKGRFTISRDNAKNTVYLQMNSLKPEDTAVYYCAAPLFSGYDYWGQGTQVTVSS”, the “polyreactivity (PSR sort gate)” value was “low polyreactivity”. With “QVQLVESVGGLVQAGGSLRLSCAASGYTFYLYAMGWYRQAPGKERELVAAISYSSGGTYYADSVKGRFTISRDNAKNTVYLQMNSLKPEDTAVYYCAADAYDGEGTYPFEYWGQGTQVTVSS” the “polyreactivity (PSR sort gate)” value was “low polyreactivity”. With “QVQLVESGGGLVQAGGSLSLICAASGFTFYIYAMGWSRQAPRKERELVAAISSSGGSTYYADSVKGRFTISRDNAKITVYLQMNSLKPEDTAVYYCARRLLRGSDWGQGTQVTVSS” the “polyreactivity (PSR sort gate)” value was “high polyreactivity”. For “QVQLVESGGGLVQAGGSLRLSCAASGNILGYNAMGWYRQAPGKERELVAAITQSGGSTYYADSVKGRFTISRDNAKNTVDLQMNSLIPEDTAVYYCAAVGYYYSALDMDYWGQGTQVTVSS”, the “polyreactivity (PSR sort gate)” value was “low polyreactivity”. With “QVQHVESGGGLVQAGGSLRLSCAASGSIFYTYPMGWNRQAPGKERELVAAISFSDGDTYYADSVKGRFTISRDNAKNTVYLQMIRLKPVDTAVYYCNDYVYLPNYPYDYWGQGTHVTVSS” the “polyreactivity (PSR sort gate)” value was “low polyreactivity”. In the case of “QVQVVESGGGFVQAGGSLRLSCAASGFTYYSYAMGWYRQAPGKEREFVAAGSTYYADSVKGRFTISRDNAKNTVYLQMNSLTPEDTAVYYCAADPWIYVQSYGYWGQGTQVTVSS”, the “polyreactivity (PSR sort gate)” value was “low polyreactivity”.

Source: the nanobody polyreactivity screen of Harvey et al. (2022)
